In US20200115434A1 (EUREKA THERAPEUTICS, published 2020):

Columns and labels:
[1] = biological target: T1, PE-labeled AFP158/HLA-A*02:01 tetramer (human, biotinylated via the BSP peptide linked to the C-terminal end of the extracellular domain); assay: flow cytometry, PE-labelled tetramer on transduced J.RT3-T3.5 cells
T1 construct: also called AFP158 tetramer; AFP158/HLA-A*02:01 tetramers; not shown: BSP peptide (BirA biotinylation site) at the C-terminus

[2] = biological target: T1, PE-labeled AFP158/HLA-A*02:01 tetramer; assay: flow cytometry, PE-labelled tetramer on transduced Jurkat cells

| Binder | binding result [1] | binding result [2] |
| --- | --- | --- |
| anti-AFP158/HLA-A*02:01-abTCR-3 (other, the junction between chain and tag is not described) chain 1: EVQLVQSGAEVKKPGESLTISCKASGYSFPNYWITWVRQMSGGGLEWMGRIDPGDSYTTYNPSFQGHVTISIDKSTNTAYLHWNSLKASDTAMYYCARYYVSLVDIWGQGTLVTVSSASTKGPSVFPLAPSSKSTSGGTAALGCLVKDYFPEPVTVSWNSGALTSGVHTFPAVLQSSGLYSLSSVVTVPSSSLGTQTYICNVNHKPSNTKVDKRVEPKSCESSCDVKLVEKSFETDTNLNFQNLSVIGFRILLLKVAGFNLLMTLRLWSSDYKDHDGDYKDHDIDYKDDDDK chain 2: QSVLTQPASVSGSPGQSITISCTGTSSDVGGYNYVSWYQQHPGKAPKLMIYDVNNRPSEVSNRFSGSKSGNTASLTISGLQAEDEADYYCSSYTTGSRAVFGGGTKLTVLGQPKANPTVTLFPPSSEELQANKATLVCLISDFYPGAVTVAWKADGSPVKAGVETTKPSKQSNNKYAASSYLSLTPEQWKSHRSYSCQVTHEGSTVEKTVAPTECSADCGFTSVSYQQGVLSATILYEILLGKATLYAVLVSALVLMAMVKRKDFYPYDVPDYA | binds | – |
| anti-AFP158/HLA-A*02:01-abTCR-6 (other, the junction between chain and tag is not described) chain 1: EVQLVQSGAEVKKPGESLTISCKASGYSFPNYWITWVRQMSGGGLEWMGRIDPGDSYTTYNPSFQGHVTISIDKSTNTAYLHWNSLKASDTAMYYCARYYVSLVDIWGQGTLVTVSSASTKGPSVFPLAPSSKSTSGGTAALGCLVKDYFPEPVTVSWNSGALTSGVHTFPAVLQSSGLYSLSSVVTVPSSSLGTQTYICNVNHKPSNTKVDKRVEPKSCDHVKPKETENTKQPSKSCHKPKAIVHTEKVNMMSLTVLGLRMLFAKTVAVNFLLTAKLFFLYPYDVPDYA chain 2: QSVLTQPASVSGSPGQSITISCTGTSSDVGGYNYVSWYQQHPGKAPKLMIYDVNNRPSEVSNRFSGSKSGNTASLTISGLQAEDEADYYCSSYTTGSRAVFGGGTKLTVLGQPKANPTVTLFPPSSEELQANKATLVCLISDFYPGAVTVAWKADGSPVKAGVETTKPSKQSNNKYAASSYLSLTPEQWKSHRSYSCQVTHEGSTVEKTVAPTECSMDPKDNCSKDANDTLLLQLTNTSAYYMYLLLLLKSVVYFAIITCCLLRRTAFCCNGEKSDYKDHDGDYKDHDIDYKDDDDK | – | binds |
| anti-AFP158/HLA-A*02:01-abTCR-4 (other, the junction between chain and tag is not described) chain 1: QSVLTQPASVSGSPGQSITISCTGTSSDVGGYNYVSWYQQHPGKAPKLMIYDVNNRPSEVSNRFSGSKSGNTASLTISGLQAEDEADYYCSSYTTGSRAVFGGGTKLTVLGQPKANPTVTLFPPSSEELQANKATLVCLISDFYPGAVTVAWKADGSPVKAGVETTKPSKQSNNKYAASSYLSLTPEQWKSHRSYSCQVTHEGSTVEKTVAPTECSESSCDVKLVEKSFETDTNLNFQNLSVIGFRILLLKVAGFNLLMTLRLWSSDYKDHDGDYKDHDIDYKDDDDK chain 2: EVQLVQSGAEVKKPGESLTISCKASGYSFPNYWITWVRQMSGGGLEWMGRIDPGDSYTTYNPSFQGHVTISIDKSTNTAYLHWNSLKASDTAMYYCARYYVSLVDIWGQGTLVTVSSASTKGPSVFPLAPSSKSTSGGTAALGCLVKDYFPEPVTVSWNSGALTSGVHTFPAVLQSSGLYSLSSVVTVPSSSLGTQTYICNVNHKPSNTKVDKRVEPKSCADCGFTSVSYQQGVLSATILYEILLGKATLYAVLVSALVLMAMVKRKDFYPYDVPDYA | – | binds |
| anti-AFP158/HLA-A*02:01-abTCR-5 (other, the junction between chain and tag is not described) chain 1: QSVLTQPASVSGSPGQSITISCTGTSSDVGGYNYVSWYQQHPGKAPKLMIYDVNNRPSEVSNRFSGSKSGNTASLTISGLQAEDEADYYCSSYTTGSRAVFGGGTKLTVLGQPKANPTVTLFPPSSEELQANKATLVCLISDFYPGAVTVAWKADGSPVKAGVETTKPSKQSNNKYAASSYLSLTPEQWKSHRSYSCQVTHEGSTVEKTVAPTECSDHVKPKETENTKQPSKSCHKPKAIVHTEKVNMMSLTVLGLRMLFAKTVAVNFLLTAKLFFLYPYDVPDYA chain 2: EVQLVQSGAEVKKPGESLTISCKASGYSFPNYWITWVRQMSGGGLEWMGRIDPGDSYTTYNPSFQGHVTISIDKSTNTAYLHWNSLKASDTAMYYCARYYVSLVDIWGQGTLVTVSSASTKGPSVFPLAPSSKSTSGGTAALGCLVKDYFPEPVTVSWNSGALTSGVHTFPAVLQSSGLYSLSSVVTVPSSSLGTQTYICNVNHKPSNTKVDKRVEPKSCMDPKDNCSKDANDTLLLQLTNTSAYYMYLLLLLKSVVYFAIITCCLLRRTAFCCNGEKSDYKDHDGDYKDHDIDYKDDDDK | – | binds |
